In US20140323392A1 (UNIVERSITY OF UTAH RESEARCH FOUNDATION, published 2014):
Bridges are numbered along the chain shown (N, C = ends). [ ]: non-standard residue; d: D form.

Tests used:
Experiment in all cases: cell-based or functional assay
[1] = molecular target: T1, HIV-1 HXB2 envelope glycoprotein gp41 (N-trimer of the prehairpin intermediate) (HIV-1 strain HXB2, UniProt P04578 512-856)
[2] = molecular target: T2, HIV-1 JRFL envelope glycoprotein gp41 (N-trimer of the prehairpin intermediate) (HIV-1 strain JRFL)
[3] = molecular target: T1, HIV-1 HXB2 envelope glycoprotein gp41 …; remark: listed apart in the source
[4] = molecular target: HIV-1 HXB2 envelope glycoprotein gp41 with resistance mutations E560K/V570I (HIV-1 strain HXB2, UniProt P04578 33-856)
[5] = molecular target: HIV-1 HXB2 envelope glycoprotein gp41 with resistance mutation Q577R (HIV-1 strain HXB2, UniProt P04578 33-856)
[6] = molecular target: HIV-1 isolate CMU06 gp41 (envelope subtype E) (HIV-1 isolate CMU06)
[7] = molecular target: HIV-1 isolate Ba-L gp41 (envelope subtype B) (HIV-1 isolate Ba-L)
[8] = molecular target: HIV-1 isolate 93IN101 gp41 (envelope subtype C) (HIV-1 isolate 93IN101)
[9] = molecular target: HIV-1 isolate IIIB gp41 (envelope subtype B) (HIV-1 isolate IIIB)
[10] = molecular target: HIV-1 isolate JR-CSF gp41 (envelope subtype B) (HIV-1 isolate JR-CSF)
[11] = molecular target: HIV-1 isolate 93BR029 gp41 (envelope subtype F) (HIV-1 isolate 93BR029)
[12] = molecular target: HIV-1 isolate 92UG037 gp41 (envelope subtype A) (HIV-1 isolate 92UG037)
[13] = molecular target: HIV-1 isolate G3 gp41 (envelope subtype G) (HIV-1 isolate G3)
[14] = molecular target: HIV-1 isolate 92UG029 gp41 (envelope subtype A) (HIV-1 isolate 92UG029)
[15] = molecular target: T2, HIV-1 JRFL envelope glycoprotein gp41 …; remark: listed apart in the source
[16] = molecular target: HIV-1 isolate 93TH073 gp41 (envelope subtype E) (HIV-1 isolate 93TH073)
[17] = molecular target: HIV-1 isolate 92BR025 gp41 (envelope subtype C) (HIV-1 isolate 92BR025)
[18] = molecular target: HIV-1 isolate 92UG046 gp41 (envelope subtype D) (HIV-1 isolate 92UG046)
[19] = molecular target: HIV-1 isolate 93BR019 gp41 (envelope subtype BF) (HIV-1 isolate 93BR019)
[20] = molecular target: HIV-1 isolate 93BR020 gp41 (envelope subtype F) (HIV-1 isolate 93BR020)
[21] = molecular target: HIV-1 isolate RU570 gp41 (envelope subtype G) (HIV-1 isolate RU570)
[22] = molecular target: HIV-1 isolate CMU02 gp41 (envelope subtype AE) (HIV-1 isolate CMU02)
[23] = molecular target: HIV-1 isolate 92UG001 gp41 (envelope subtype D) (HIV-1 isolate 92UG001)

B1: PEG4-PIE12-trimer (peptide)
peptide: Ac-[dH][dP][dC][dD][dY][dP][dE][dW][dQ][dW][dL][dC][dE][dL]GK-NH2
modifications: disulfide 3-12 (inferred); not fully specified (residue 16); also: homotrimer on trimethylolethane-triNHS ester scaffold
[1]
  IC50, HXB2 pseudovirion entry: 0.72 nM
[2]
  IC50, JRFL pseudovirion entry: 2.1 nM
[3]
  IC50, antiviral potency, WT HXB2: 0.72 nM
[4]
  IC50, antiviral potency, E560K/V570I (HXB2 background): 0.89 nM
[5]
  IC50, antiviral potency, Q577R (HXB2 background): > 3000 nM

## Ac-[dH][dP][dC][dD][dY][dP][dE][dW][dQ][dW][dL][dC][dE][dL]G[dK]-NH2 (disulfide 3-12 (inferred); also: trimer, crosslinking not given here) [PIE12 trimer (Table 3)]
[6]
  IC50, replication competent virus on PBMC target cells: 0.38 nM
[7]
  IC50, replication competent virus on PBMC target cells: 0.27 nM
[8]
  IC50, replication competent virus on PBMC target cells: 0.38 nM
[9]
  IC50, replication competent virus on PBMC target cells: 0.78 nM
[10]
  IC50, replication competent virus on PBMC target cells: 0.08 nM
[11]
  IC50, replication competent virus on PBMC target cells: 0.79 nM
[12]
  IC50, replication competent virus on PBMC target cells: 0.21 nM
[13]
  IC50, replication competent virus on PBMC target cells: 1.21 nM
[14]
  IC50, replication competent virus on PBMC target cells: 0.69 nM
[15]
  IC50, replication competent virus on PBMC target cells: 0.26 nM
[16]
  IC50, replication competent virus on PBMC target cells: 0.84 nM
[17]
  IC50, replication competent virus on PBMC target cells: 5.19 nM
[18]
  IC50, replication competent virus on PBMC target cells: 1.2 nM
[19]
  IC50, replication competent virus on PBMC target cells: 4.72 nM
[20]
  IC50, replication competent virus on PBMC target cells: 0.37 nM
[21]
  IC50, replication competent virus on PBMC target cells: 0.36 nM
[22]
  IC50, replication competent virus on PBMC target cells: 0.35 nM
[23]
  IC50, replication competent virus on PBMC target cells: 4.45 nM
